Experimental findings from publication PMC9858354, “Studies with neutralizing antibodies suggest CXCL8-mediated neutrophil activation is independent of C-C motif chemokine receptor-like 2 (CCRL2) ligand binding function” (PLOS ONE, 2023) are described below.

What all share (conditions): one partner purified
The target of experiment [1] is T1, mouse C-C motif chemokine receptor-like 2 (CCRL2) isoform b, on HEK-muCCRL2 cells (mouse, UniProt O35457 1-360).
T1 construct: C-C motif chemokine receptor-like 2 (CCRL2), mouse, printed as isoform b, codon optimized cDNA; also called murine CCRL2
T1 sequence (looked up): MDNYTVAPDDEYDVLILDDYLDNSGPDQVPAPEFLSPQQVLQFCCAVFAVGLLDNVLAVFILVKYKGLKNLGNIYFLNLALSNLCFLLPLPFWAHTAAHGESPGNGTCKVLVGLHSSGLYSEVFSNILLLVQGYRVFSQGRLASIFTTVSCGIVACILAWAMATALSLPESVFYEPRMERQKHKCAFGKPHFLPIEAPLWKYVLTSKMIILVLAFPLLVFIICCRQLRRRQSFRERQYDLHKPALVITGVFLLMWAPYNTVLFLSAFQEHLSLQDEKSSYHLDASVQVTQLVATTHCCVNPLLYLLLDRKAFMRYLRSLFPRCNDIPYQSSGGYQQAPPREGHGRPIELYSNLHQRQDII
Kind of experiment: flow cytometry on cells; competition: HEK-huCCRL2 or HEK-muCCRL2 cells incubated with serially diluted unlabeled competitor at 4°C 45 min, then 10 nM biotin-labeled chemerin at 4°C 45 min, RRX-streptavidin; IC50 from four-parameter fit. A general note: A flow cytometer gives signals particle by particle.

The target in experiment [2] is T1, mouse C-C motif chemokine receptor-like …. Kind of experiment: flow cytometry on cells; serially diluted biotin-labeled ligand on HEK-huCCRL2, HEK-muCCRL2 or parental HEK cells (2x10^4 cells/well, 384-well), PBS + 0.1% BSA, 4°C 45 min, detected with RRX-streptavidin; MFI normalized to parental HEK cell binding; EC50 from four-parameter fit.
In experiment [3] the target is T2, human C-C motif chemokine receptor-like 2 (CCRL2) isoform b, on HEK-huCCRL2 cells (human, UniProt O00421 1-344).
T2 construct: C-C motif chemokine receptor-like 2 (CCRL2), human, isoform b, codon optimized cDNA; No tag is mentioned for the construct; also called human CCRL2
T2 sequence (looked up): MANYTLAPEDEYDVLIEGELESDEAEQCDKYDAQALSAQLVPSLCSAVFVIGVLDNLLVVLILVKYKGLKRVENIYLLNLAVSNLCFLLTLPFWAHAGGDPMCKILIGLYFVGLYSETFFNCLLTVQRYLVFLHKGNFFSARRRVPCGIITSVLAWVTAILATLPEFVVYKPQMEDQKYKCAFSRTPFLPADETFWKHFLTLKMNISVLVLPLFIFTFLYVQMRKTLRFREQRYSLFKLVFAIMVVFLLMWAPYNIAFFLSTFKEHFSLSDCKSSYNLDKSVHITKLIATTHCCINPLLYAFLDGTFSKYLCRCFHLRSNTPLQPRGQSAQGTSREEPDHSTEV
The experiment is described as above.

Experiment [4] deals with T2, human C-C motif chemokine receptor-like …. Kind of experiment: SPR; live-cell SPR microscopy (SPRm 200); HEK-huCCRL2 cells seeded on collagen-coated gold slides; analyte injected at 150 ul/min, contact 3 min, dissociation 5 min; running buffer PBS + 0.1% BSA; chemerin 10-400 nM; 1:1 binding model; n = 3. (In general: Surface plasmon resonance follows binding to a sensor surface in real time, without labels.)

Experiment [5] has the same target. Kind of experiment: flow cytometry on cells; competition: HEK-huCCRL2 or HEK-muCCRL2 cells incubated with serially diluted unlabeled competitor at 4°C 45 min, then 10 nM biotin-labeled chemerin at 4°C 45 min, RRX-streptavidin; IC50 from four-parameter fit.

What is called IC50 is the concentration that inhibits the measured activity by half. A low value points to higher potency. For orientation: EC50 means the concentration that produces a half-maximal response. By Kd is commonly meant the concentration at which binding is half-saturated. Usually koff stands for the first-order rate constant of dissociation. What is called kon is the rate constant with which the complex forms.

B1: recombinant active mouse chemerin (residues 21-156), unlabeled (ligand, UniProt Q9DD06 21-156, looked up)
chain: EPELSETQRRSLQVALEEFHKHPPVQLAFQEIGVDRAEEVLFSAGTFVRLEFKLQQTNCPKKDWKKPECTIKPNGRRRKCLACIKMDPKGKILGRIVHCPILKQGPQDPQELQCIKIAQAGEDPHGYFLPGQFAFS
notes: active mouse chemerin, Uniprot entry Q9DD06, residues 21-156; Construct is named hIgG1 monovalent Fc-TEV-chemerin; also called murine chemerin; unlabeled murine chemerin; source: HEK 293F, transient, purified (Protein A, TEV cleavage, Protein A and Ni-NTA removal, Superdex 75 SEC); not shown: Fc (human IgG1, monovalent) with TEV site, N-terminal, cleaved
B1: the IC50 in experiment [1] is 21.1 nM.

B2: biotin-labeled recombinant active mouse chemerin (residues 21-156) (ligand, UniProt Q9DD06 21-156, looked up)
chain: EPELSETQRRSLQVALEEFHKHPPVQLAFQEIGVDRAEEVLFSAGTFVRLEFKLQQTNCPKKDWKKPECTIKPNGRRRKCLACIKMDPKGKILGRIVHCPILKQGPQDPQELQCIKIAQAGEDPHGYFLPGQFAFS
modifications: biotin (EZ-Link Sulfo-NHS-LC-Biotin, biotin-to-analyte molar ratio 5:1; any reactive primary amine)
notes: active mouse chemerin, Uniprot entry Q9DD06, residues 21-156; also called biotinylated murine chemerin; biotin-labeled murine chemerin; not shown: Fc (human IgG1, monovalent) with TEV site, N-terminal, cleaved
Consider B2, for which the EC50 in experiment [2] amounted to 143 nM.

B3: biotin-labeled recombinant active human chemerin (residues 21-157) (ligand, UniProt Q99969 21-157, looked up)
chain: ELTEAQRRGLQVALEEFHKHPPVQWAFQETSVESAVDTPFPAGIFVRLEFKLQQTSCRKRDWKKPECKVRPNGRKRKCLACIKLGSEDKVLGRLVHCPIETQVLREAEEHQETQCLRVQRAGEDPHSFYFPGQFAFS
modifications: biotin (EZ-Link Sulfo-NHS-LC-Biotin, biotin-to-analyte molar ratio 5:1; any reactive primary amine)
notes: active human chemerin, Uniprot entry Q99969, residues 21-157; also called Biotin-chemerin; biotinylated chemerin; not shown: Fc (human IgG1, monovalent) with TEV site, N-terminal, cleaved
Consider B3, for which, in experiment [3], the EC50 came out at 4.2 nM. In experiment [4], the dissociation constant Kd worked out at 8.55 nM, the koff is 0.00184 s⁻¹ and the kon is 297000 M⁻¹ s⁻¹.

B4: recombinant active human chemerin (residues 21-157), unlabeled (ligand, UniProt Q99969 21-157, looked up)
chain: ELTEAQRRGLQVALEEFHKHPPVQWAFQETSVESAVDTPFPAGIFVRLEFKLQQTSCRKRDWKKPECKVRPNGRKRKCLACIKLGSEDKVLGRLVHCPIETQVLREAEEHQETQCLRVQRAGEDPHSFYFPGQFAFS
notes: active human chemerin, Uniprot entry Q99969, residues 21-157; Construct is named hIgG1 monovalent Fc-TEV-chemerin; also called label-free chemerin; unlabeled chemerin; source: HEK 293F, transient, purified (Protein A, TEV cleavage, Protein A and Ni-NTA removal, Superdex 75 SEC); not shown: Fc (human IgG1, monovalent) with TEV site, N-terminal, cleaved
Turning to B4, in experiment [4], the Kd worked out at 5.49 nM, the koff worked out at 0.00116 s⁻¹ and the kon was found to be 311000 M⁻¹ s⁻¹. Further, the half-inhibitory concentration (IC50) in experiment [5] stood at 7.55 nM.
